Legend:
Assay in all cases: cell-based or functional assay
[1] = target: TSHR with Arg80 mutated to Ala expressed in CHO cells (human) (UniProt P16473)
[2] = target: wild type TSHR expressed in CHO cells (human) (UniProt P16473)
[3] = target: wild type TSHR expressed in CHO cells (human) (UniProt P16473); remark: listed apart in the source
[4] = target: human TSHR with Glu251 mutated to Ala expressed in CHO cells (human) (UniProt P16473)
[5] = target: TSHR with Lys58 mutated to Ala expressed in CHO cells (human) (UniProt P16473)
[6] = target: TSHR with Lys250 mutated to Ala (expressed in CHO cells) (human) (UniProt P16473)
[7] = target: TSHR with Arg255 mutated to Ala, expressed in CHO cells (human) (UniProt P16473)
[8] = target: wild type TSHR (human TSH receptor) expressed in CHO cells (human) (UniProt P16473)
[9] = target: TSHR with Glu178 mutated to Ala expressed in CHO cells (human) (UniProt P16473)

TSH (thyroid stimulating hormone) (ligand)
Cyclic AMP produced at 0.01 ng/mL TSH [1]: 4.06 pmol/mL | Cyclic AMP produced at 0.03 ng/mL TSH [1]: 6.19 pmol/mL | Cyclic AMP produced at 0.1 ng/mL TSH [1]: 13.3 pmol/mL | Cyclic AMP produced at 0.3 ng/mL TSH [1]: 27.7 pmol/mL | Cyclic AMP produced at 1 ng/mL TSH [1]: 54.5 pmol/mL | Cyclic AMP produced at 3 ng/mL TSH [1]: 57 pmol/mL | Mutated/Wild type (%) of cyclic AMP at 0.01 ng/mL TSH [1]: 203% | Mutated/Wild type (%) of cyclic AMP at 0.03 ng/mL TSH [1]: 168% | Mutated/Wild type (%) of cyclic AMP at 0.1 ng/mL TSH [1]: 146% | Mutated/Wild type (%) of cyclic AMP at 0.3 ng/mL TSH [1]: 125% | Cyclic AMP produced at 0.01 ng/mL TSH [2]: 2 pmol/mL | Cyclic AMP produced at 0.03 ng/mL TSH [2]: 3.68 pmol/mL | Cyclic AMP produced at 0.1 ng/mL TSH [2]: 9.1 pmol/mL | Cyclic AMP produced at 0.3 ng/mL TSH [2]: 22.2 pmol/mL | Cyclic AMP produced at 1 ng/mL TSH [2]: 57.5 pmol/mL | Cyclic AMP produced at 3 ng/mL TSH [2]: 58.5 pmol/mL | % inhibition of TSH stimulation; TSH (2), run at the end of assay, no antibody [3]: 0% | Cyclic AMP produced; TSH 3 ng/mL alone [3]: 97.5 pmol/mL | Cyclic AMP produced; TSH (2) 3 ng/mL, run at the end of assay [3]: 104 pmol/mL | % inhibition of TSH stimulation; TSH (2), run at the end of assay, no antibody [4]: 0% | Cyclic AMP produced; TSH 3 ng/mL alone [4]: 76.1 pmol/mL | Cyclic AMP produced; TSH (2) 3 ng/mL, run at the end of assay [4]: 87.4 pmol/mL | Mutated/wild type (%) of cyclic AMP produced; TSH 3 ng/mL alone [4]: 78% | Mutated/wild type (%) of cyclic AMP produced; TSH (2) 3 ng/mL, run at the end of assay [4]: 84% | Cyclic AMP produced at 0.01 ng/mL TSH [5]: 7.16 pmol/mL | Cyclic AMP produced at 0.03 ng/mL TSH [5]: 10 pmol/mL | Cyclic AMP produced at 0.1 ng/mL TSH [5]: 17.2 pmol/mL | Cyclic AMP produced at 0.3 ng/mL TSH [5]: 45.9 pmol/mL | Cyclic AMP produced at 1 ng/mL TSH [5]: 75.2 pmol/mL | Cyclic AMP produced at 3 ng/mL TSH [5]: 83.7 pmol/mL | Mutated/Wild type (%) of cyclic AMP at 0.01 ng/mL TSH [5]: 230% | Mutated/Wild type (%) of cyclic AMP at 0.03 ng/mL TSH [5]: 226% | Mutated/Wild type (%) of cyclic AMP at 0.1 ng/mL TSH [5]: 171% | Mutated/Wild type (%) of cyclic AMP at 0.3 ng/mL TSH [5]: 111% | Mutated/Wild type (%) of cyclic AMP at 1 ng/mL TSH [5]: 101% | Mutated/Wild type (%) of cyclic AMP at 3 ng/mL TSH [5]: 88% | % inhibition of TSH stimulation; TSH (2), run at the end of assay, no antibody; Experiment 1 [6]: 10% | % inhibition of TSH stimulation; TSH (2), run at the end of assay, no antibody; Experiment 2 [6]: 7% | Cyclic AMP produced; TSH 3 ng/mL alone; Experiment 1 [6]: 64.7 pmol/mL | Cyclic AMP produced; TSH 3 ng/mL alone; Experiment 2 [6]: 55 pmol/mL | Cyclic AMP produced; TSH (2) 3 ng/mL, run at the end of assay; Experiment 1 [6]: 58.3 pmol/mL | Cyclic AMP produced; TSH (2) 3 ng/mL, run at the end of assay; Experiment 2 [6]: 51.1 pmol/mL | Mutated/wild type (%) of cyclic AMP produced; TSH 3 ng/mL alone; Experiment 1 [6]: 83% | Mutated/wild type (%) of cyclic AMP produced; TSH 3 ng/mL alone; Experiment 2 [6]: 64% | % inhibition of TSH stimulation; TSH (2), run at the end of assay [7]: 7% | Cyclic AMP produced; TSH 3 ng/mL [7]: 63.9 pmol/mL | Cyclic AMP produced; TSH (2) 3 ng/mL, run at the end of assay [7]: 59.6 pmol/mL | Mutated/wild type (%) of cyclic AMP produced; TSH 3 ng/mL [7]: 102% | Mutated/wild type (%) of cyclic AMP produced; TSH (2) 3 ng/mL, run at the end of assay [7]: 87% | % inhibition of TSH stimulation, Exp 1: TSH (2) [8]: 0% | % inhibition of TSH stimulation, Exp 2: TSH (2) [8]: 0% | % inhibition of TSH stimulation: TSH (2) [8]: 0% | % inhibition of TSH stimulation; TSH (2), run at the end of assay [8]: 0% | Cyclic AMP produced; TSH 3 ng/mL [8]: 62.4 pmol/mL | Cyclic AMP produced; TSH (2) 3 ng/mL, run at the end of assay [8]: 68.4 pmol/mL | % inhibition of TSH stimulation; TSH (2), run at the end of assay; Exp 1 [9]: 12% | % inhibition of TSH stimulation; TSH (2), run at the end of assay; Exp 2 [9]: 5% | Cyclic AMP produced; TSH 3 ng/mL; Exp 1 [9]: 56.6 pmol/mL | Cyclic AMP produced; TSH 3 ng/mL; Exp 2 [9]: 46.2 pmol/mL | Cyclic AMP produced; TSH (2) 3 ng/mL, run at the end of assay; Exp 1 [9]: 50.1 pmol/mL | Cyclic AMP produced; TSH (2) 3 ng/mL, run at the end of assay; Exp 2 [9]: 44.1 pmol/mL | Mutated/wild type (%) of cyclic AMP produced; TSH 3 ng/mL; Exp 1 [9]: 107% | Mutated/wild type (%) of cyclic AMP produced; TSH 3 ng/mL; Exp 2 [9]: 53%
